Experimental data published in PMC5065005 (The FEBS journal, 2016).

Biological target: the molecule itself
Experiment: 1D 1H NMR spectra at increasing protein concentration

B1: human FBxo3 ApaG domain, residues 278–407 (domain or fragment, UniProt Q9UK99 278-407, looked up)
chain: VATTGDITVSVSTSFLPELSSVHPPHYFFTYRIRIEMSKDALPEKACQLDSRYWRITNAKGDVEEVQGPGVVGEFPIISPGRVYEYTSCTTFSTTSGYMEGYYTFHFLYFKDKIFNVAIPRFHMACPTFR
  binding result: binds
